Laboratory results: patent US20210246166A1 (Bayer, published 2021)
Numbered stars: 1 amine (or outer) side, 2 acyl side, 3 side chain; on linkers, the order of the positions; unused ones are H or OH. Bridge positions count the residues as written; N and C are the ends. Square brackets hold non-standard residues; d marks the D form. Ends that are not written are not given here. NH(CH2CH2O)5CH2CO = O=C(COCCOCCOCCOCCOCCN[*:1])[*:2]; Pro(3S,4R-methano) = O=C(O)[C@H]1NC[C@@H]2C[C@@H]21; Phe(3-COOH) = N[C@@H](Cc1cccc(C(=O)O)c1)C(=O)O; Oic = O=C(O)[C@@H]1C[C@@H]2CCCC[C@@H]2N1; tBuAla = CC(C)(C)C[C@H](N)C(=O)O; Cba = N[C@@H](CC1CCC1)C(=O)O; Pen = CC(C)(S)[C@H](N)C(=O)O; NMeC = CN[C@@H](CS)C(=O)O; PEG3 = NCCOCCOCCOCCC(=O)O; Orn = NCCC[C@H](N)C(=O)O; PEG2 = NCCOCCOCCC(=O)O; Sar = CNCC(=O)O

T1: recombinant human MASP1 active protease (amino acids 297-699, C-terminal His Tag) (human, UniProt P48740 297-699)
T1 sequence: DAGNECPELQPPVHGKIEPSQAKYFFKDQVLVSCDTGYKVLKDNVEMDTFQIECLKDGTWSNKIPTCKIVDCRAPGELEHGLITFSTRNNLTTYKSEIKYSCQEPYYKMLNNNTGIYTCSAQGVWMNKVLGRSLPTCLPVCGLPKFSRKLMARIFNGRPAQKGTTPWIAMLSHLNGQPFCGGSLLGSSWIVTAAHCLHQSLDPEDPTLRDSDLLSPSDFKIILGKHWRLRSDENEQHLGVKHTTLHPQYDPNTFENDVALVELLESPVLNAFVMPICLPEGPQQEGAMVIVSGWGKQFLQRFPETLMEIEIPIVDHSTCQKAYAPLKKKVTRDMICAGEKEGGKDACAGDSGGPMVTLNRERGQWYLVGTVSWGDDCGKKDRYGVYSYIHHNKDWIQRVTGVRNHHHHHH

B1: VIC+SRS-((tBu)A)-PPI-(Pen)+IPD-NH2 (peptide)
peptide: VICSRS[tBuAla]PPI[Pen]IPD-NH2
modifications: disulfide 3-11; N-terminus assumed
SMILES: CC[C@H](C)[C@H](NC(=O)[C@@H](N)C(C)C)C(=O)N[C@H]1CSSC(C)(C)[C@@H](C(=O)N[C@H](C(=O)N2CCC[C@H]2C(=O)N[C@@H](CC(=O)O)C(N)=O)[C@@H](C)CC)NC(=O)[C@H]([C@@H](C)CC)NC(=O)[C@@H]2CCCN2C(=O)[C@@H]2CCCN2C(=O)[C@H](CC(C)(C)C)NC(=O)[C@H](CO)NC(=O)[C@H](CCCNC(=N)N)NC(=O)[C@H](CO)NC1=O
B2: TIC+SRS-((tBu)A)-PPI-((N-Me)C)+I-NH2 (peptide)
peptide: TICSRS[tBuAla]PPI[NMeC]I-NH2
modifications: disulfide 3-11; N-terminus assumed
SMILES: CC[C@H](C)[C@H](NC(=O)[C@@H]1CSSC[C@H](NC(=O)[C@@H](NC(=O)[C@@H](N)[C@@H](C)O)[C@@H](C)CC)C(=O)N[C@@H](CO)C(=O)N[C@@H](CCCNC(=N)N)C(=O)N[C@@H](CO)C(=O)N[C@@H](CC(C)(C)C)C(=O)N2CCC[C@H]2C(=O)N2CCC[C@H]2C(=O)N[C@@H]([C@@H](C)CC)C(=O)N1C)C(N)=O
B3: ((N-Me)G)-IC+SRS-((tBu)A)-PPI-(Pen)+IP-((3-Carboxy)F)-NH2 (peptide)
peptide: [Sar]ICSRS[tBuAla]PPI[Pen]IP[Phe(3-COOH)]-NH2
modifications: disulfide 3-11; N-terminus assumed
SMILES: CC[C@H](C)[C@H](NC(=O)CNC)C(=O)N[C@H]1CSSC(C)(C)[C@@H](C(=O)N[C@H](C(=O)N2CCC[C@H]2C(=O)N[C@@H](Cc2cccc(C(=O)O)c2)C(N)=O)[C@@H](C)CC)NC(=O)[C@H]([C@@H](C)CC)NC(=O)[C@@H]2CCCN2C(=O)[C@@H]2CCCN2C(=O)[C@H](CC(C)(C)C)NC(=O)[C@H](CO)NC(=O)[C@H](CCCNC(=N)N)NC(=O)[C@H](CO)NC1=O
B4: IIC+SRS-((tBu)A)-PPI-(Pen)+IPD-NH2 (peptide)
peptide: IICSRS[tBuAla]PPI[Pen]IPD-NH2
modifications: disulfide 3-11; N-terminus assumed
SMILES: CC[C@H](C)[C@H](N)C(=O)N[C@H](C(=O)N[C@H]1CSSC(C)(C)[C@@H](C(=O)N[C@H](C(=O)N2CCC[C@H]2C(=O)N[C@@H](CC(=O)O)C(N)=O)[C@@H](C)CC)NC(=O)[C@H]([C@@H](C)CC)NC(=O)[C@@H]2CCCN2C(=O)[C@@H]2CCCN2C(=O)[C@H](CC(C)(C)C)NC(=O)[C@H](CO)NC(=O)[C@H](CCCNC(=N)N)NC(=O)[C@H](CO)NC1=O)[C@@H](C)CC
B5: ((N-Me)G)-IC+SRS-((tBu)A)-PPI-(Pen)+IPD-(Orn)-(Orn)-(Orn)-NH2 (peptide)
peptide: [Sar]ICSRS[tBuAla]PPI[Pen]IPD[Orn][Orn][Orn]-NH2
modifications: disulfide 3-11; N-terminus assumed
SMILES: CC[C@H](C)[C@H](NC(=O)CNC)C(=O)N[C@H]1CSSC(C)(C)[C@@H](C(=O)N[C@H](C(=O)N2CCC[C@H]2C(=O)N[C@@H](CC(=O)O)C(=O)N[C@@H](CCCN)C(=O)N[C@@H](CCCN)C(=O)N[C@@H](CCCN)C(N)=O)[C@@H](C)CC)NC(=O)[C@H]([C@@H](C)CC)NC(=O)[C@@H]2CCCN2C(=O)[C@@H]2CCCN2C(=O)[C@H](CC(C)(C)C)NC(=O)[C@H](CO)NC(=O)[C@H](CCCNC(=N)N)NC(=O)[C@H](CO)NC1=O
B6: AIC+SRS-((tBu)A)-PPI-((N-Me)C)+IPD-NH2 (peptide)
peptide: AICSRS[tBuAla]PPI[NMeC]IPD-NH2
modifications: disulfide 3-11; N-terminus assumed
SMILES: CC[C@H](C)[C@H](NC(=O)[C@H](C)N)C(=O)N[C@H]1CSSC[C@@H](C(=O)N[C@H](C(=O)N2CCC[C@H]2C(=O)N[C@@H](CC(=O)O)C(N)=O)[C@@H](C)CC)N(C)C(=O)[C@H]([C@@H](C)CC)NC(=O)[C@@H]2CCCN2C(=O)[C@@H]2CCCN2C(=O)[C@H](CC(C)(C)C)NC(=O)[C@H](CO)NC(=O)[C@H](CCCNC(=N)N)NC(=O)[C@H](CO)NC1=O
B7: ((N-Me)G)-IC+SRSL-((1S,2S,5R)-3-azabicyclo[3.1.0]hexane-2-carboxylic acid)-PI-(Pen)+IP-NH2 (peptide)
peptide: [Sar]ICSRSL[Pro(3S,4R-methano)]PI[Pen]IP-NH2
modifications: disulfide 3-11; N-terminus assumed
SMILES: CC[C@H](C)[C@H](NC(=O)CNC)C(=O)N[C@H]1CSSC(C)(C)[C@@H](C(=O)N[C@H](C(=O)N2CCC[C@H]2C(N)=O)[C@@H](C)CC)NC(=O)[C@H]([C@@H](C)CC)NC(=O)[C@@H]2CCCN2C(=O)[C@@H]2[C@H]3C[C@H]3CN2C(=O)[C@H](CC(C)C)NC(=O)[C@H](CO)NC(=O)[C@H](CCCNC(=N)N)NC(=O)[C@H](CO)NC1=O
B8: ((N-Me)G)-IC+SRSLP-(Oic)-I-(Pen)+IPD-(PEG2(13 atoms))-NH2 (peptide)
peptide: [Sar]ICSRSLP[Oic]I[Pen]IPD[PEG3]-NH2
modifications: disulfide 3-11; N-terminus assumed
SMILES: CC[C@H](C)[C@H](NC(=O)CNC)C(=O)N[C@H]1CSSC(C)(C)[C@@H](C(=O)N[C@H](C(=O)N2CCC[C@H]2C(=O)N[C@@H](CC(=O)O)C(=O)NCCOCCOCCOCCC(N)=O)[C@@H](C)CC)NC(=O)[C@H]([C@@H](C)CC)NC(=O)[C@@H]2C[C@@H]3CCCC[C@@H]3N2C(=O)[C@@H]2CCCN2C(=O)[C@H](CC(C)C)NC(=O)[C@H](CO)NC(=O)[C@H](CCCNC(=N)N)NC(=O)[C@H](CO)NC1=O
B9: ((N-Me)G)-IC+SRSLP-(Oic)-I-(Pen)+IPD-(PEG1(10 atoms))-NH2 (peptide)
peptide: [Sar]ICSRSLP[Oic]I[Pen]IPD[PEG2]-NH2
modifications: disulfide 3-11; N-terminus assumed
SMILES: CC[C@H](C)[C@H](NC(=O)CNC)C(=O)N[C@H]1CSSC(C)(C)[C@@H](C(=O)N[C@H](C(=O)N2CCC[C@H]2C(=O)N[C@@H](CC(=O)O)C(=O)NCCOCCOCCC(N)=O)[C@@H](C)CC)NC(=O)[C@H]([C@@H](C)CC)NC(=O)[C@@H]2C[C@@H]3CCCC[C@@H]3N2C(=O)[C@@H]2CCCN2C(=O)[C@H](CC(C)C)NC(=O)[C@H](CO)NC(=O)[C@H](CCCNC(=N)N)NC(=O)[C@H](CO)NC1=O
B10: (Orn)-IC+SRSLP-(Oic)-I-(Pen)+IPD-NH2 (peptide)
peptide: [Orn]ICSRSLP[Oic]I[Pen]IPD-NH2
modifications: disulfide 3-11; N-terminus assumed
SMILES: CC[C@H](C)[C@H](NC(=O)[C@@H](N)CCCN)C(=O)N[C@H]1CSSC(C)(C)[C@@H](C(=O)N[C@H](C(=O)N2CCC[C@H]2C(=O)N[C@@H](CC(=O)O)C(N)=O)[C@@H](C)CC)NC(=O)[C@H]([C@@H](C)CC)NC(=O)[C@@H]2C[C@@H]3CCCC[C@@H]3N2C(=O)[C@@H]2CCCN2C(=O)[C@H](CC(C)C)NC(=O)[C@H](CO)NC(=O)[C@H](CCCNC(=N)N)NC(=O)[C@H](CO)NC1=O
B11: A-(Cba)-C+SRS-((tBu)A)-PPI-(Pen)+IPD-NH2 (peptide)
peptide: A[Cba]CSRS[tBuAla]PPI[Pen]IPD-NH2
modifications: disulfide 3-11; N-terminus assumed
SMILES: CC[C@H](C)[C@@H]1NC(=O)[C@@H]2CCCN2C(=O)[C@@H]2CCCN2C(=O)[C@H](CC(C)(C)C)NC(=O)[C@H](CO)NC(=O)[C@H](CCCNC(=N)N)NC(=O)[C@H](CO)NC(=O)[C@@H](NC(=O)[C@H](CC2CCC2)NC(=O)[C@H](C)N)CSSC(C)(C)[C@@H](C(=O)N[C@H](C(=O)N2CCC[C@H]2C(=O)N[C@@H](CC(=O)O)C(N)=O)[C@@H](C)CC)NC1=O
B12: ((N-Me)G)-IC+SRS-((tBu)A)-PPI-(Pen)+IP-((N-Me)G)-((N-Me)G)-((N-Me)G)-NH2 (peptide)
peptide: [Sar]ICSRS[tBuAla]PPI[Pen]IP[Sar][Sar][Sar]-NH2
modifications: disulfide 3-11; N-terminus assumed
SMILES: CC[C@H](C)[C@H](NC(=O)CNC)C(=O)N[C@H]1CSSC(C)(C)[C@@H](C(=O)N[C@H](C(=O)N2CCC[C@H]2C(=O)N(C)CC(=O)N(C)CC(=O)N(C)CC(N)=O)[C@@H](C)CC)NC(=O)[C@H]([C@@H](C)CC)NC(=O)[C@@H]2CCCN2C(=O)[C@@H]2CCCN2C(=O)[C@H](CC(C)(C)C)NC(=O)[C@H](CO)NC(=O)[C@H](CCCNC(=N)N)NC(=O)[C@H](CO)NC1=O
B13: AIC+SRSLP-(Oic)-I-(Pen)+I-NH2 (peptide)
peptide: AICSRSLP[Oic]I[Pen]I-NH2
modifications: disulfide 3-11; N-terminus assumed
SMILES: CC[C@H](C)[C@H](NC(=O)[C@H]1NC(=O)[C@H]([C@@H](C)CC)NC(=O)[C@@H]2C[C@@H]3CCCC[C@@H]3N2C(=O)[C@@H]2CCCN2C(=O)[C@H](CC(C)C)NC(=O)[C@H](CO)NC(=O)[C@H](CCCNC(=N)N)NC(=O)[C@H](CO)NC(=O)[C@@H](NC(=O)[C@@H](NC(=O)[C@H](C)N)[C@@H](C)CC)CSSC1(C)C)C(N)=O
B14: ((N-Me)G)-IC+SRS-((tBu)A)-PPI-(Pen)+IP-(PEG5-CH2CO2H (18 atoms))-NH2 (peptide)
peptide: [Sar]ICSRS[tBuAla]PPI[Pen]IP[NH(CH2CH2O)5CH2CO]-NH2
modifications: disulfide 3-11; N-terminus assumed
SMILES: CC[C@H](C)[C@H](NC(=O)CNC)C(=O)N[C@H]1CSSC(C)(C)[C@@H](C(=O)N[C@H](C(=O)N2CCC[C@H]2C(=O)NCCOCCOCCOCCOCCOCC(N)=O)[C@@H](C)CC)NC(=O)[C@H]([C@@H](C)CC)NC(=O)[C@@H]2CCCN2C(=O)[C@@H]2CCCN2C(=O)[C@H](CC(C)(C)C)NC(=O)[C@H](CO)NC(=O)[C@H](CCCNC(=N)N)NC(=O)[C@H](CO)NC1=O

The binders below were run against T1, recombinant human MASP1 active protease … (assay: cell-based or functional assay).

| Binder | human MASP1 IC50 [nM] |
| --- | --- |
| B1 | 2 |
| B2 | 2 |
| B3 | 2 |
| B4 | 2.1 |
| B5 | 2 |
| B6 | 1.95 |
| B7 | 2.1 |
| B8 | 2.1 |
| B9 | 0.93 |
| B10 | 2 |
| B11 | 2 |
| B12 | 2 |
| B13 | 2.1 |
| B14 | 2 |

The binders below were run against recombinant human MASP2 active protease (amino acids 297-686, C-terminal His Tag) (human, UniProt O00187 297-686) (assay: cell-based or functional assay).
Chain of recombinant human MASP2 active protease (amino acids 297-686, C-terminal His Tag) (O00187 other isoform, or with tags, fused parts or gaps limits assumed): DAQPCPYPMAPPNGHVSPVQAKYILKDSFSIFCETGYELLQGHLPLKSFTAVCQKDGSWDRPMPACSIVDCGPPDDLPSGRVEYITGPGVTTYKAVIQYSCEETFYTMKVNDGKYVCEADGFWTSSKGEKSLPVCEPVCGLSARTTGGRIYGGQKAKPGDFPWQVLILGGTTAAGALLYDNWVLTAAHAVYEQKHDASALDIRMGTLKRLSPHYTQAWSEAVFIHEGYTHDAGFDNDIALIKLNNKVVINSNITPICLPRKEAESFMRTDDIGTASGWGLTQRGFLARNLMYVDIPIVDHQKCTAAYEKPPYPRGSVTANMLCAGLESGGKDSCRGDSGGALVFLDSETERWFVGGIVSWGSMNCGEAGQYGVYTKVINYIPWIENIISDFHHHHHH

| Binder | human MASP2 IC50 [nM] |
| --- | --- |
| B1 | 73 |
| B2 | 80 |
| B3 | 42 |
| B4 | 72 |
| B5 | 130 |
| B6 | 225 |
| B7 | 20 |
| B8 | 96 |
| B9 | 68 |
| B10 | 76 |
| B11 | 24 |
| B12 | 47 |
| B13 | 98 |
| B14 | 42 |
